The source of these data is article PMC6071530.

pKd: −log10 of the molar value.

The test deals with Recombinant human S100A4 (human) (UniProt P26447). Briefly: SPR; BIAcore 2000; 2000 RU of recombinant human S100A4 immobilized covalently on a CM4 chip; soluble AR or NRG as analyte. A general note: In SPR one partner is held on a chip, and binding of the other changes the refractive index at the surface.
Recombinant human S100A4 (human), sequence (P26447 whole entry): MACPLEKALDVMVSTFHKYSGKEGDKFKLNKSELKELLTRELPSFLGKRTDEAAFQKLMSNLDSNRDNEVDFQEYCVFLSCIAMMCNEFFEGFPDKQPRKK

In general, pKd refers to the Kd on a negative log10 scale, so that one unit is a factor of ten. With “Neuregulin 1 (from UniProt Q02297 20-241) (ligand)”, the pKd is 7.70.
